Residue numbers refer to the chain shown, from its start.
Assays:
[1] = biological target: T1, α-IL12β heavy-LgBiT (SEQ ID NO: 161); experiment: NanoBiT, HC-LgBiT:LC-SmBiT:competing LC 1:1:1; competing kappa LC m15 (SEQ ID NO: 106)
T1 construct: VH-CH1-linker-LgBiT; germline VH3-33*01

[2] = biological target: T1, α-IL12β heavy-LgBiT (SEQ ID NO: 161); experiment: NanoBiT, HC-LgBiT:LC-SmBiT:competing LC 1:1:1; competing kappa LC m18 (SEQ ID NO: 109)
[3] = biological target: T1, α-IL12β heavy-LgBiT (SEQ ID NO: 161); experiment: NanoBiT, HC-LgBiT:LC-SmBiT:competing LC 1:1:1; competing kappa LC m9 (SEQ ID NO: 100)
[4] = biological target: T1, α-IL12β heavy-LgBiT (SEQ ID NO: 161); experiment: NanoBiT, HC-LgBiT:LC-SmBiT:competing LC 1:1:1; competing kappa LC m12 (SEQ ID NO: 103)
[5] = biological target: T1, α-IL12β heavy-LgBiT (SEQ ID NO: 161); experiment: NanoBiT, HC-LgBiT:LC-SmBiT:competing LC 1:1:1; competing kappa LC m6 (SEQ ID NO: 97)
[6] = biological target: T2, α-TRAILR2 heavy-LgBiT (SEQ ID NO: 146); experiment: NanoBiT, HC-LgBiT:LC-SmBiT:competing LC 1:1:1; competing kappa LC m15 (SEQ ID NO: 106)
T2 construct: VH-CH1-linker-LgBiT; germline VH3-20*01

[7] = biological target: T2, α-TRAILR2 heavy-LgBiT (SEQ ID NO: 146); experiment: NanoBiT, HC-LgBiT:LC-SmBiT:competing LC 1:1:1; competing kappa LC m21 (SEQ ID NO: 112)
[8] = biological target: T2, α-TRAILR2 heavy-LgBiT (SEQ ID NO: 146); experiment: NanoBiT, HC-LgBiT:LC-SmBiT:competing LC 1:1:1; competing kappa LC m18 (SEQ ID NO: 109)
[9] = biological target: T2, α-TRAILR2 heavy-LgBiT (SEQ ID NO: 146); experiment: NanoBiT, HC-LgBiT:LC-SmBiT:competing LC 1:1:1; competing kappa LC m24 (SEQ ID NO: 115)
[10] = biological target: T2, α-TRAILR2 heavy-LgBiT (SEQ ID NO: 146); experiment: NanoBiT, HC-LgBiT:LC-SmBiT:competing LC 1:1:1; competing kappa LC m12 (SEQ ID NO: 103)
[11] = biological target: T2, α-TRAILR2 heavy-LgBiT (SEQ ID NO: 146); experiment: NanoBiT, HC-LgBiT:LC-SmBiT:competing LC 1:1:1; competing kappa LC m6 (SEQ ID NO: 97)
[12] = biological target: T2, α-TRAILR2 heavy-LgBiT (SEQ ID NO: 146); experiment: NanoBiT, HC-LgBiT:LC-SmBiT:competing LC 1:1:1; competing kappa LC m42 (SEQ ID NO: 133)
[13] = biological target: T3, α-CTLA4 heavy-hCHIg_Knob_Cys-GH_scFv (SEQ ID NO: 169); experiment: KappaSelect resin analysis of multispecific molecule 12, reduced gel; said to agree with lambda light chain pairing with the kappa heavy chain in molecule 4
T3 construct: full heavy chain, human Fc knob, C-terminal scFv; germline VH3-30*01; also called HCP2 of multispecific molecule 12

[14] = biological target: T4, α-TNFR10β heavy-hCHIg_Hole_Cys (SEQ ID NO: 177); experiment: intact MS of papain-cleaved multispecific molecule 4; Fab of this pairing observed (observed mass, Da)
T4 construct: full heavy chain, human Fc hole; Fab analysed after papain cleavage in the MS assay; also called α-TRAILR2 arm first chain; HCP1 of multispecific molecules 4, 6, 12

[15] = biological target: T5, α-CTLA4 heavy-hCHIg_Knob_Cys (SEQ ID NO: 168) (Homo sapiens (Human), UniProt P0DOX5 1-449 = IgG part); experiment: intact MS of papain-cleaved multispecific molecule 4; mispaired Fab observed (observed mass, Da)
T5 construct: full heavy chain, human Fc knob; Fab analysed after papain cleavage in the MS assay; germline VH3-30*01; also called HCP2 of multispecific molecules 3, 4, 5, 9

[16] = biological target: T6, α-CD221 heavy-hCHIg_Hole_Cys (SEQ ID NO: 180); experiment: intact MS of papain-cleaved multispecific molecule 5; Fab of this pairing observed (observed mass, Da)
T6 construct: full heavy chain, human Fc hole; Fab analysed after papain cleavage in the MS assay; germline VH1-69*01; also called HCP1 of multispecific molecule 5

[17] = biological target: T7, α-IGF1R heavy-LgBiT (SEQ ID NO: 116); experiment: NanoBiT, HC-LgBiT:LC-SmBiT:competing LC 1:1:1; competing lambda LC m60 (SEQ ID NO: 151)
T7 construct: VH-CH1-linker-LgBiT; germline VH3-23*01

[18] = biological target: T7, α-IGF1R heavy-LgBiT (SEQ ID NO: 116); experiment: NanoBiT, HC-LgBiT:LC-SmBiT:competing LC 1:1:1; competing lambda LC m72 (SEQ ID NO: 163)
[19] = biological target: T7, α-IGF1R heavy-LgBiT (SEQ ID NO: 116); experiment: NanoBiT, HC-LgBiT:LC-SmBiT:competing LC 1:1:1; competing lambda LC m54 (SEQ ID NO: 145)
[20] = biological target: T7, α-IGF1R heavy-LgBiT (SEQ ID NO: 116); experiment: NanoBiT, HC-LgBiT:LC-SmBiT:competing LC 1:1:1; competing lambda LC m66 (SEQ ID NO: 157)
[21] = biological target: T7, α-IGF1R heavy-LgBiT (SEQ ID NO: 116); experiment: NanoBiT, HC-LgBiT:LC-SmBiT:competing LC 1:1:1; competing lambda LC m69 (SEQ ID NO: 160)
[22] = biological target: T8, α-activin receptors heavy-LgBiT (SEQ ID NO: 149); experiment: NanoBiT, HC-LgBiT:LC-SmBiT:competing LC 1:1:1; competing kappa LC m9 (SEQ ID NO: 100)
T8 construct: VH-CH1-linker-LgBiT; germline VH1-46*01

[23] = biological target: T8, α-activin receptors heavy-LgBiT (SEQ ID …); experiment: NanoBiT, HC-LgBiT:LC-SmBiT:competing LC 1:1:1; competing kappa LC m24 (SEQ ID NO: 115)
[24] = biological target: T8, α-activin receptors heavy-LgBiT (SEQ ID …); experiment: NanoBiT, HC-LgBiT:LC-SmBiT:competing LC 1:1:1; competing kappa LC m12 (SEQ ID NO: 103)
[25] = biological target: T8, α-activin receptors heavy-LgBiT (SEQ ID …); experiment: NanoBiT, HC-LgBiT:LC-SmBiT:competing LC 1:1:1; competing kappa LC m6 (SEQ ID NO: 97)
[26] = biological target: T8, α-activin receptors heavy-LgBiT (SEQ ID …); experiment: NanoBiT, HC-LgBiT:LC-SmBiT:competing LC 1:1:1; competing kappa LC m33 (SEQ ID NO: 124)
[27] = biological target: T8, α-activin receptors heavy-LgBiT (SEQ ID …); experiment: NanoBiT, HC-LgBiT:LC-SmBiT:competing LC 1:1:1; competing kappa LC m42 (SEQ ID NO: 133)
[28] = biological target: T8, α-activin receptors heavy-LgBiT (SEQ ID …); experiment: NanoBiT, HC-LgBiT:LC-SmBiT:competing LC 1:1:1; competing kappa LC m27 (SEQ ID NO: 118)
[29] = biological target: T9, α-CSF2 heavy-LgBiT (SEQ ID NO: 101); experiment: NanoBiT, HC-LgBiT:LC-SmBiT:competing LC 1:1:1; competing lambda LC m72 (SEQ ID NO: 163)
T9 construct: VH-CH1-linker-LgBiT; germline VH1-3*01

[30] = biological target: T9, α-CSF2 heavy-LgBiT (SEQ ID NO: 101); experiment: NanoBiT, HC-LgBiT:LC-SmBiT:competing LC 1:1:1; competing lambda LC m66 (SEQ ID NO: 157)
[31] = biological target: T9, α-CSF2 heavy-LgBiT (SEQ ID NO: 101); experiment: NanoBiT, HC-LgBiT:LC-SmBiT:competing LC 1:1:1; competing lambda LC m48 (SEQ ID NO: 139)
[32] = biological target: T9, α-CSF2 heavy-LgBiT (SEQ ID NO: 101); experiment: NanoBiT, HC-LgBiT:LC-SmBiT:competing LC 1:1:1; competing lambda LC m69 (SEQ ID NO: 160)

B1: α-IL12β light-SmBiT (SEQ ID NO: 162) (other)
light: QSVLTQPPSVSGAPGQRVTISCSGSRSNIGSNTVKWYQQLPGTAPKLLIYYNDQRPSGVPDRFSGSKSGTSASLAITGLQAEDEADYYCQSYDRYTHPALLFGTGTKVTVLGQPKANPTVTLFPPSSEELQANKATLVCLISDFYPGAVTVAWKADGSPVKAGVETTKPSKQSNNKYAASSYLSLTPEQWKSHRSYSCQVTHEGSTVEKTVAPTECSGSSGGGGSGGGGSSGGVTGYRLFEEIL
notes: lambda light chain-linker-SmBiT; germline Vl1-44*01
B1 was tested, and the Percent pairing [1] was 100%, the Percent pairing [2] was 80% and the Percent pairing [3] was 100%. It also gave a Percent pairing [4] of 100% and a Percent pairing [5] of 100%.

B2: α-TRAILR2 light-SmBiT (SEQ ID NO: 147) (other)
light: SSELTQDPAVSVALGQTVRITCQGDSLRSYYASWYQQKPGQAPVLVIYGKNNRPSGIPDRFSGSSSGNTASLTITGAQAEDEADYYCNSRDSSGNHVVFGGGTKLTVLGQPKANPTVTLFPPSSEELQANKATLVCLISDFYPGAVTVAWKADGSPVKAGVETTKPSKQSNNKYAASSYLSLTPEQWKSHRSYSCQVTHEGSTVEKTVAPTECSGSSGGGGSGGGGSSGGVTGYRLFEEIL
notes: lambda light chain-linker-SmBiT; germline Vl3-19*01
Binder B2 has a Percent pairing [6] of 77%, a Percent pairing [7] of 100% and a Percent pairing [8] of 100%. For the same binder, the Percent pairing [9] was 81%, the Percent pairing [10] was 84% and the Percent pairing [11] was 100%. The Percent pairing [12] was 100%.

B3: α-TRAILR2 light (SEQ ID NO: 148) (other)
light: SSELTQDPAVSVALGQTVRITCQGDSLRSYYASWYQQKPGQAPVLVIYGKNNRPSGIPDRFSGSSSGNTASLTITGAQAEDEADYYCNSRDSSGNHVVFGGGTKLTVLGQPKANPTVTLFPPSSEELQANKATLVCLISDFYPGAVTVAWKADGSPVKAGVETTKPSKQSNNKYAASSYLSLTPEQWKSHRSYSCQVTHEGSTVEKTVAPTECS
notes: unmodified lambda light chain; germline Vl3-19*01; also called LLCP of multispecific molecules 4, 6, 12
B3: binds [13]; binds [14]; binds [15].

B4: α-CD221 light (SEQ ID NO: 136) (other)
light: B3 light with S33T, V44I, K50E, N52K, N88K, S92G, N95Q, V97L
notes: unmodified lambda light chain; germline Vl3-19*01; also called LLCP of multispecific molecule 5
B4: binds [16].

B5: α-IGF1R light-SmBiT (SEQ ID NO: 117) (other)
light: DIQMTQSPSSLSASLGDRVTITCRASQGISSYLAWYQQKPGKAPKLLIYAKSTLQSGVPSRFSGSGSGTDFTLTISSLQPEDSATYYCQQYWTFPLTFGGGTKVEIKRTVAAPSVFIFPPSDEQLKSGTASVVCLLNNFYPREAKVQWKVDNALQSGNSQESVTEQDSKDSTYSLSSTLTLSKADYEKHKVYACEVTHQGLSSPVTKSFNRGECGSSGGGGSGGGGSSGGVTGYRLFEEIL
notes: kappa light chain-linker-SmBiT; germline Vk1-27*01
Work on B5 yielded a Percent pairing [17] of 81%, a Percent pairing [18] of 96% and a Percent pairing [19] of 84%. It also gave a Percent pairing [20] of 95% and a Percent pairing [21] of 100%.

B6: α-activin receptors light-SmBiT (SEQ ID NO: 150) (other)
light: QSALTQPASVSGSPGQSITISCTGTSSDVGSYNYVNWYQQHPGKAPKLMIYGVSKRPSGVSNRFSGSKSGNTASLTISGLQAEDEADYYCGTFAGGSYYGVFGGGTKLTVLGQPKANPTVTLFPPSSEELQANKATLVCLISDFYPGAVTVAWKADGSPVKAGVETTKPSKQSNNKYAASSYLSLTPEQWKSHRSYSCQVTHEGSTVEKTVAPTECSGSSGGGGSGGGGSSGGVTGYRLFEEIL
notes: lambda light chain-linker-SmBiT; germline Vl2-14*01
B6 gave a Percent pairing [22] of 90%, a Percent pairing [23] of 75% and a Percent pairing [24] of 81%. For the same binder, the Percent pairing [25] was 90%, the Percent pairing [26] was 100% and the Percent pairing [27] was 87%. The Percent pairing [28] was 79%.

B7: α-CSF2 light-SmBiT (SEQ ID NO: 102) (other)
light: EIVLTQSPATLSVSPGERATLSCRASQSVGTNVAWYQQKPGQAPRVLIYSTSSRATGITDRFSGSGSGTDFTLTISRLEPEDFAVYYCQQFNKSPLTFGGGTKVEIKRTVAAPSVFIFPPSDEQLKSGTASVVCLLNNFYPREAKVQWKVDNALQSGNSQESVTEQDSKDSTYSLSSTLTLSKADYEKHKVYACEVTHQGLSSPVTKSFNRGECGSSGGGGSGGGGSSGGVTGYRLFEEIL
notes: kappa light chain-linker-SmBiT; germline Vk3D-20*01
Work on B7 yielded a Percent pairing [29] of 83%, a Percent pairing [30] of 93% and a Percent pairing [31] of 100%. It also gave a Percent pairing [32] of 98%.

Source: US20230272119A1 (MARENGO THERAPEUTICS, published 2023)
